Source: article PMC7611325 (Molecular cell, 2021)

Target: PAF1c (Polymerase II associated factor 1 complex; CTR9, Leo1, Paf1, CDC73, WDR61) (UniProt Q6PD62;Q8WVC0;Q8N7H5;Q6P1J9;Q9GZS3)
Assay: pull-down

B1: GST-MYC^1-163 (glutathione-S-transferase fusion protein that encompasses amino acids 1 to 163 of human MYC) (domain or fragment)
chain: MPLNVSFTNRNYDLDYDSVQPYFYCDEEENFYQQQQQSELQPPAPSEDIWKKFELLPTPPLSPSRRSGLCSPSYVAVTPFSLRGDNDGGGGSFSTADQLEMVTELLGGDMVNQSFICDPDDETFIKNIIIQDCMWSGFSAAAKLVSEKLASYQAARKDSGSPN
  binding result: binds
